One may read the Kd as the free concentration of one partner at which half of the binding sites on the other are occupied at equilibrium, for simple one-to-one binding. The koff is a measure of how fast the partners let go of each other. For orientation: kon means the rate constant with which the complex forms. The term EC50 denotes the midpoint of the concentration-response curve.

Here are results for 4 molecules from CN115368458A (BIO THERA SOLUTIONS LTD, dated 2022).

In test [1] the target is T1, 人源hCD73-His (北京义翘神州, Catalog 10904-H08H) (human, UniProt P21589 27-547).
T1 construct: Bought protein; also called 人CD73; not shown: His tag
T1 sequence (looked up): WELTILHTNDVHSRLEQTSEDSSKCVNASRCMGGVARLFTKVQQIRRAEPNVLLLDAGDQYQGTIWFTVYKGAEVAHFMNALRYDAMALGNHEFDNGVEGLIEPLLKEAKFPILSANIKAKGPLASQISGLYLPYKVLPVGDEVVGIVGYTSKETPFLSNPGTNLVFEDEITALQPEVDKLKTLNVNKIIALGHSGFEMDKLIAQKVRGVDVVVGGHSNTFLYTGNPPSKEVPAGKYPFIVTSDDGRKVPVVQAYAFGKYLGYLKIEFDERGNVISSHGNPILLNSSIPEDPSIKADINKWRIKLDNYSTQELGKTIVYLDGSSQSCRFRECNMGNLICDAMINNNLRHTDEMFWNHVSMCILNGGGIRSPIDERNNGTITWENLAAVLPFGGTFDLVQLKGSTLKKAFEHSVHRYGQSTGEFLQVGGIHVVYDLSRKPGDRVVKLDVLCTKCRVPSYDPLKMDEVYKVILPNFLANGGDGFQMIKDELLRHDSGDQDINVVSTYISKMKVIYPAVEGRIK
Kind of test: SPR, Biacore T200, antibody captured on Protein A chip, hCD73-His as analyte from 32 nM, 1:1 model.

Test [2] deals with T2, 食蟹猴cCD73-His (近岸生物, Catalog CD3-C52H9) (cynomolgus monkey, UniProt A0A2K5V5U7 27-547).
T2 construct: Bought protein; also called 食蟹猴CD73; not shown: His tag
T2 sequence: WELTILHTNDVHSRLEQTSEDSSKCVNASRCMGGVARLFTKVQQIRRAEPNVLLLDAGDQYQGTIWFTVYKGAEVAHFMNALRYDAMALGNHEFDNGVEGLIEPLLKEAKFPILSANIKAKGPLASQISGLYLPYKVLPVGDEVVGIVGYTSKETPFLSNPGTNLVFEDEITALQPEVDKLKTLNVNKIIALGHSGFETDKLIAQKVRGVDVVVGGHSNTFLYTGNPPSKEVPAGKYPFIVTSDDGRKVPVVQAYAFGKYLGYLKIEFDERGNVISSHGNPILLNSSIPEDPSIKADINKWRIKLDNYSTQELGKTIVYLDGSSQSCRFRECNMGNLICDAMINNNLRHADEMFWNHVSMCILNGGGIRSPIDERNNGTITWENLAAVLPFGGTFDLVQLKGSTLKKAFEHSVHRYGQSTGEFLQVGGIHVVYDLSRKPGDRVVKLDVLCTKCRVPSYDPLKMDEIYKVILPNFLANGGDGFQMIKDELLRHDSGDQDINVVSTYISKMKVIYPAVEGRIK
Kind of test: ELISA, cCD73-His coated at 2 μg/ml, antibody from 4 μg/ml in 3-fold steps, anti-h-Kappa-HRP. (ELISA stands for enzyme-linked immunosorbent assay.)

Test [3] concerns the target T3, 鼠源mCD73-His (近岸生物, Catalog CD3-M52H9) (mouse, UniProt Q61503 29-551).
T3 construct: Bought protein; also called 小鼠CD73; not shown: His tag
T3 sequence (looked up): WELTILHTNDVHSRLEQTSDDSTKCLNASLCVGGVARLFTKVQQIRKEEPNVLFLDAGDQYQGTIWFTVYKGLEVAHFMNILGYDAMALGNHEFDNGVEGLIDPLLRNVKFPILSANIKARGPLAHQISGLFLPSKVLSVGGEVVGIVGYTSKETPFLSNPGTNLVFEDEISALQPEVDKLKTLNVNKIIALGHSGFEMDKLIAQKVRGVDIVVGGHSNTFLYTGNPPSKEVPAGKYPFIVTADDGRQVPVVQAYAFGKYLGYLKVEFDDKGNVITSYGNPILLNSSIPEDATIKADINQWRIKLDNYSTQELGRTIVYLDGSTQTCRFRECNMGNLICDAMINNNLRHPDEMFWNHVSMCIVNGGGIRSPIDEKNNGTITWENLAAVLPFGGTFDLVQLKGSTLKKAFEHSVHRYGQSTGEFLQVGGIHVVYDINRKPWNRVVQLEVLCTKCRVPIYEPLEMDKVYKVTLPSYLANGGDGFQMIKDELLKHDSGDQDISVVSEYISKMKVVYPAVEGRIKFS
Description: ELISA, mCD73-His coated at 2 μg/ml, anti-h-Kappa-HRP detection; NA表示不结合或基本不结合.

Test [4] addresses T4, CD73 on the cell membrane of MDA-MB-231 cells (human breast cancer cells) (human, UniProt P21589 27-549).
T4 sequence (looked up): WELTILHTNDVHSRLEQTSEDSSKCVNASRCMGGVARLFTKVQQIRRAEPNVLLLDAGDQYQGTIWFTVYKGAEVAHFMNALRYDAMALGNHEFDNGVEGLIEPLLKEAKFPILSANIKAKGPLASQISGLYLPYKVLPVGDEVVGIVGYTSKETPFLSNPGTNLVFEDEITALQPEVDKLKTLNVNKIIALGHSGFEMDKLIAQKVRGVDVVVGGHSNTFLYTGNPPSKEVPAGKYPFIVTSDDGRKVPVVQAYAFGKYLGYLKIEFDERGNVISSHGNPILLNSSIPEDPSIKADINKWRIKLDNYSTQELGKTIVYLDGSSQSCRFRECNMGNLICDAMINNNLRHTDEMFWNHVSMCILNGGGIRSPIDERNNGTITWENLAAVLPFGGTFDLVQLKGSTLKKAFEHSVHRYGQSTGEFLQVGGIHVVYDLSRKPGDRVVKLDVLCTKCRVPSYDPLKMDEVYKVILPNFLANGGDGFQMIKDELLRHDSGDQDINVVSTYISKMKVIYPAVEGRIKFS
Description: cell-based or functional assay.

In test [5] the target is T4, CD73 on the cell membrane of MDA-MB-231 …. Description: flow cytometry (MFI) on MDA-MB-231 cells, antibody from 10 ug/ml in 2-fold steps, anti-humanFc-PE. In general terms: Flow cytometry measures light scatter and fluorescence of single cells or particles in a stream.
In test [6] the target is T1, 人源hCD73-His (北京义翘神州, Catalog 10904-H08H). Description: ELISA, hCD73-His coated at 2 μg/ml, antibody from 4 μg/ml in 3-fold steps, anti-h-Kappa-HRP.

B1: 抗体P59-L12 (antibody, IgG1, V domains shown)
VH: EVQLVESGGGLVQPGGSLRLSCAASGFSFDTYAMSWVRQAPGKGLEWVSAISGDTGVTGYADSVKGRFTISRDNSKNTLYLQMNSLRAEDTAVYYCARDRYAYLVDGWFDYWGQGTLVTVSS
VL: DIQMTQSPSSLSASVGDRVTITCRASQGISSYLAWYQQKPGKAPKLLIYAASSLQSGVPSRFSGSGSGTDFTLTISSLQPEDFATYYCQTSDFFPNPVTFGQGTKVEIK
In test [1], B1 displayed a dissociation constant (Kd) of 8.25 nM, a koff of 0.0068 s⁻¹ and a kon of 827000 M⁻¹ s⁻¹.

B2: 抗体P59-L6 (antibody, IgG1, V domains shown)
VH: EVQLVESGGGLVQPGGSLRLSCAASGFSFDTYAMSWVRQAPGKGLEWVSAISGDTGVTGYADSVKGRFTISRDNSKNTLYLQMNSLRAEDTAVYYCARDRYAYLVDGWFDYWGQGTLVTVSS
VL: DIQMTQSPSSLSASVGDRVTITCRASQGISSYLAWYQQKPGKAPKLLIYAASSLQSGVPSRFSGSGSGTDFTLTISSLQPEDFATYYCAQYDFSFYGVTFGQGTKVEIK
As to B2, in test [1], binding was characterised by a dissociation constant (Kd) of 1.85 nM, the koff came to 0.000198 s⁻¹ and the kon is 107000 M⁻¹ s⁻¹.

B3: 抗体P59-L1 (antibody, IgG1, V domains shown)
VH: EVQLVESGGGLVQPGGSLRLSCAASGFSFDTYAMSWVRQAPGKGLEWVSAISGDTGVTGYADSVKGRFTISRDNSKNTLYLQMNSLRAEDTAVYYCARDRYAYLVDGWFDYWGQGTLVTVSS
VL: DIQMTQSPSSLSASVGDRVTITCRASQGISSYLAWYQQKPGKAPKLLIYAASSLQSGVPSRFSGSGSGTDFTLTISSLQPEDFATYYCQQASYTGDPVTFGQGTKVEIK
In test [1], B3 showed a Kd of 7.67 nM, a koff of 0.00557 s⁻¹ and a kon of 726000 M⁻¹ s⁻¹.

B4: 抗体P59-L17 (antibody, IgG1, V domains shown)
VH: EVQLVESGGGLVQPGGSLRLSCAASGFSFDTYAMSWVRQAPGKGLEWVSAISGDTGVTGYADSVKGRFTISRDNSKNTLYLQMNSLRAEDTAVYYCARDRYAYLVDGWFDYWGQGTLVTVSS
VL: DIQMTQSPSSLSASVGDRVTITCRASQGISSYLAWYQQKPGKAPKLLIYAASSLQSGVPSRFSGSGSGTDFTLTISSLQPEDFATYYCQTWSGWPDYLTFGQGTKVEIK
notes: also called P59-17
Molecule B4 came in with an EC50 in test [2] of 0.0427 µg/mL. Also, the binding result in test [3] is on record as “no binding (tested: 4μg/ml (highest concentration tested))”. For the same molecule, in test [1], the Kd was found to be 0.569 nM, the koff was determined as 0.000126 s⁻¹ and the kon was determined as 221000 M⁻¹ s⁻¹. The “IC50 of the inhibition of the enzyme activity of cell membrane CD73 (MDA-MB-231 cells, AMP/ATP luminescence assay)” value in test [4] turned out to be 0.127 µg/mL. The same molecule displayed an EC50 in test [5] of 0.438 µg/mL. This molecule also came in with an EC50 in test [6] of 0.0339 µg/mL.
